Test results from paper PMC2700736.
Read-outs that look alike come from different tables or passages of the source.

B1: Nicked bottom DNA strand substrate (structured_DNA)
DNA 1: GGTGAAACACTCGAACGCTAGGGATAACAGGGTAATATAGCCAATCCAATGATTGGCTATATTACCCTGTTAT
DNA 2: CCCTAGCGTTCGAGTGTTTCA
modifications: nick at bottom-strand cleavage site; 5' phosphate at nick (21-mer)
B2: Nicked top DNA strand substrate (structured_DNA)
DNA 1: GGTGAAACACTCGAACGCTAGGGATAA
DNA 2: CAGGGTAATATAGCCAATCCAATGATTGGCTATATTACCCTGTTATCCCTAGCGTTCGAGTGTTTCA
modifications: nick at top-strand cleavage site; 5' phosphate at nick (67-mer)
B3: 94-mer intact hairpin substrate (structured_DNA)
DNA: GGTGAAACACTCGAACGCTAGGGATAACAGGGTAATATAGCCAATCCAATGATTGGCTATATTACCCTGTTATCCCTAGCGTTCGAGTGTTTCA
B4: Duplex linear product (upstream cleavage product) (dsDNA)
DNA 1: GGTGAAACACTCGAACGCTAGGGATAA
DNA 2: CCCTAGCGTTCGAGTGTTTCA

Experiments:
Experiment in all cases: filter binding
I-SceI wild-type [1] = target: T1, I-SceI wild-type (UniProt P03882 1-235)
T1 sequence: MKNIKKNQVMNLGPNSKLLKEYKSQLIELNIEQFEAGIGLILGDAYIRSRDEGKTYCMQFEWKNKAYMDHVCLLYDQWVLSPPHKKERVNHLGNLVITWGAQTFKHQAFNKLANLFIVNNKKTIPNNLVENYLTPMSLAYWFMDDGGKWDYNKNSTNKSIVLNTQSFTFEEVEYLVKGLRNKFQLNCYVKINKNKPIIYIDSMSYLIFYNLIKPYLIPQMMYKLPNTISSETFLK

I-SceI wild-type [2] = target: T1, I-SceI wild-type; remark: listed apart in the source
I-SceI K122I [3] = target: T2, I-SceI K122I (UniProt P03882 1-235, K122I)
T2 sequence: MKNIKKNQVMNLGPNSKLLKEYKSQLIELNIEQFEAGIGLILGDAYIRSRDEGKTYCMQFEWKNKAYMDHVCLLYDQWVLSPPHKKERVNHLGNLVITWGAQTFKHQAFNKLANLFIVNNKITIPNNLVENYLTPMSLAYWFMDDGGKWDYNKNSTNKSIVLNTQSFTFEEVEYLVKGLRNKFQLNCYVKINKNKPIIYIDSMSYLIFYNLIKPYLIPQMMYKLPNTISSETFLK

I-SceI K223I [4] = target: T3, I-SceI K223I (UniProt P03882 1-235, K223I)
T3 sequence: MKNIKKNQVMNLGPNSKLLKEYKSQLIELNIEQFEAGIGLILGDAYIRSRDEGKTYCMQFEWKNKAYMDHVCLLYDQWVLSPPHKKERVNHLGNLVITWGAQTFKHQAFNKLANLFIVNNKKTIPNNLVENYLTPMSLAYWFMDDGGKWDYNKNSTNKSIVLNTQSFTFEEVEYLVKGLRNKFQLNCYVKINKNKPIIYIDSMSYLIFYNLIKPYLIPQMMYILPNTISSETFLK

I-SceI K122I [5] = target: T2, I-SceI K122I; remark: listed apart in the source
I-SceI K223I [6] = target: T3, I-SceI K223I; remark: listed apart in the source

Binder	Kd (I-SceI wild-type [1]) [µM]	Kd (I-SceI wild-type [2]) [µM]	Kd (I-SceI K122I [3]) [µM]	Kd (I-SceI K223I [4]) [µM]	Kd (I-SceI K122I [5]) [µM]	Kd (I-SceI K223I [6]) [µM]
CAGGGTAATATAGCCAATCCAATGATTGGCTATATTACCCTGTTAT (structured_DNA) [Hairpin product 46-mer (downstream cleavage product)]	0.0033 ± 0.0006	–	–	–	–	–
B1	0.0032 ± 0.0002	0.0132 ± 0.0021	–	–	–	–
B2	0.0042 ± 0.0011	0.0194 ± 0.0007	–	–	–	–
B3	0.0023 ± 0.0004	0.0145 ± 0.0057	0.0173 ± 0.0004	0.0154 ± 0.0003	0.0073 ± 0.0004	0.0074 ± 0.0013
B4	0.175 ± 0.048	–	–	–	–	–
